Laboratory results as given in PMC6544907.

Assays:
[1] = target: human plasma plasminogen (human); test: SPR
[2] = target: PAM_(NS88.2), recombinant full-length PAM of GAS strain NS88.2 (emm98.1) (Streptococcus pyogenes (GAS) strain NS88.2); test: AUC
[3] = target: PAM_(NS223), recombinant full-length PAM of GAS strain NS223 (emm91) (Streptococcus pyogenes (GAS) strain NS223); test: AUC
[4] = target: PAM_(NS455), recombinant full-length PAM of GAS strain NS455 (emm52) (Streptococcus pyogenes (GAS) strain NS455); test: AUC
[5] = target: PAM_(SS1448), recombinant full-length PAM of GAS strain SS1448 (emm86.2) (Streptococcus pyogenes (GAS) strain SS1448); test: AUC
[6] = target: PAM_(SS1572), recombinant full-length PAM of GAS strain SS1572 (emm223) (Streptococcus pyogenes (GAS) strain SS1572); test: AUC
[7] = target: PAM_(SS1574), recombinant full-length PAM of GAS strain SS1574 (emm224) (Streptococcus pyogenes (GAS) strain SS1574); test: AUC
[8] = target: PAM on cells of GAS strain SS1574 (Streptococcus pyogenes (endogenous in strain SS1574)) (UniProt P49054); test: flow cytometry on cells

Substance | Kd [1] [nM] | koff [1] [s⁻¹] | kon [1] [M⁻¹ s⁻¹] | further results
PAM_(AP53), recombinant full-length PAM of GAS strain AP53 (emm53) (natural protein) | 1.6 | 0.00056 | 340000 | 
PAM_(AP53_short) (residues 42-175 of PAM_(AP53)) (domain or fragment) |  | 0.00077 |  | 
PAM_(NS88.2), recombinant full-length PAM of GAS strain NS88.2 (emm98.1) (natural protein) | 1.2 | 0.00023 |  | stoichiometry N [2]: 2
PAM_(NS223), recombinant full-length PAM of GAS strain NS223 (emm91) (natural protein) | 1.4 | 0.00033 | 240000 | stoichiometry N [3]: 2
PAM_(NS455), recombinant full-length PAM of GAS strain NS455 (emm52) (natural protein) |  | 0.00017 | 540000 | stoichiometry N [4]: 2
PAM_(SS1448), recombinant full-length PAM of GAS strain SS1448 (emm86.2) (natural protein) | 28 | 0.001 | 36000 | stoichiometry N [5]: 2
PAM_(SS1572), recombinant full-length PAM of GAS strain SS1572 (emm223) (natural protein) | 4.9 | 0.00059 | 120000 | stoichiometry N [6]: 2
PAM_(SS1574), recombinant full-length PAM of GAS strain SS1574 (emm224) (natural protein) | 1.1 | 0.00011 |  | stoichiometry N [7]: 2
human plasma plasminogen (natural protein) |  |  |  | amount of hPg bound, fold of strain AP53 [8]: < 2 fold
